Consider 41 sequences from the Immune Epitope Database (IEDB).

Among the targets are HLA-A*03:01; HLA-A*11:01; HLA-A*31:01; HLA-A*33:01; HLA-A*68:01.
Common to all, as to assay: IEDB peptide-MHC binding, purified MHC/competitive/radioactivity; filed as Kd, often an IC50 or EC50 that approximates it; ≥ and ≤ were set here for values at or beyond the usual limits of such assays
[1] abbreviates: source organism: Vaccinia virus WR.
Setting [2] is: source organism: Mammarenavirus machupoense.
Setting [3] is: source organism: Mammarenavirus brazilense.
Where [4] appears, read: source organism: Dengue virus 1 Brazil/97-11/1997.
[5] abbreviates: source organism: Triticum aestivum.
The mark [6] stands for this setting: source organism: Dengue virus 2 Jamaica/1409/1983.
[7] abbreviates: source organism: Dengue virus 3 Martinique/1243/1999.
[8] abbreviates: source organism: Dengue virus 4 Philippines/H241/1956.

As to VTTKDYFSFK, the Kd came out at 26.1 nM with HLA-A*03:01 (setting [1]); 11 nM with HLA-A*11:01 (setting [1]); 561 nM with HLA-A*31:01 (setting [1]); 7280 nM with HLA-A*33:01 (setting [1]); 155 nM with HLA-A*68:01 (setting [1]).
The corresponding values for RSSPPIPMSR are 8.73 nM, 1.49 nM, 1.12 nM, 1600 nM and 245 nM.
The corresponding values for KMLTFDVFR are 82.9 nM, 2.96 nM, 3.97 nM, 365 nM and 77.2 nM.
As for LFSTSAADIK, the dissociation constant Kd was 19600 nM with HLA-A*03:01 (setting [1]); 4790 nM with HLA-A*11:01 (setting [1]); no less than 70000 nM in the assay with HLA-A*31:01 (setting [1]); no less than 70000 nM in the assay with HLA-A*33:01 (setting [1]); 57.8 nM with HLA-A*68:01 (setting [1]).
Take EKFGHFCKYH: the Kd with HLA-A*03:01 (setting [2]) is no less than 70000 nM; in the assay with HLA-A*11:01 (setting [2]), no less than 69700 nM; in the assay with HLA-A*31:01 (setting [2]), no less than 32800 nM; in the assay with HLA-A*33:01 (setting [2]) it was no less than 70000 nM; with HLA-A*68:01 (setting [2]) it was no less than 70100 nM.
On to MVNHSTYYVH, for which the Kd was determined as 10100 nM in the assay with HLA-A*03:01 (setting [3]); 6280 nM in the assay with HLA-A*11:01 (setting [3]); 544 nM in the assay with HLA-A*31:01 (setting [3]); 3020 nM with HLA-A*33:01 (setting [3]); 391 nM in the assay with HLA-A*68:01 (setting [3]).
As for MLNIMNRRKR, the Kd with HLA-A*31:01 (setting [4]) is no less than 60800 nM.
Consider LVTRKCPQK, for which the Kd with HLA-A*03:01 (setting [1]) is 63 nM; with HLA-A*11:01 (setting [1]), 17.3 nM; with HLA-A*31:01 (setting [1]), 1320 nM; with HLA-A*33:01 (setting [1]) it was 5110 nM; with HLA-A*68:01 (setting [1]), 19.3 nM.
On to HAIILHQQQK, for which the Kd with HLA-A*03:01 (setting [5]) was 1270 nM; with HLA-A*11:01 (setting [5]) it was 1130 nM; with HLA-A*31:01 (setting [5]), 11000 nM; with HLA-A*33:01 (setting [5]), no less than 44400 nM; in the assay with HLA-A*68:01 (setting [5]), 10.4 nM.
As for ATTFVTPMLR, the results for the Kd in the assay with HLA-A*11:01 (setting [6]), with HLA-A*31:01 (setting [6]) and with HLA-A*68:01 (setting [6]) were 95.2 nM, 91.1 nM and 16.2 nM, respectively.
As to DVSLIIEYK, the Kd worked out at 16100 nM with HLA-A*03:01 (setting [1]); 152 nM with HLA-A*11:01 (setting [1]); 72.2 nM with HLA-A*31:01 (setting [1]); 111 nM with HLA-A*33:01 (setting [1]); 3.57 nM in the assay with HLA-A*68:01 (setting [1]).
For SSVSVLMKEH, the Kd is 17700 nM with HLA-A*03:01 (setting [2]); no less than 31000 nM with HLA-A*11:01 (setting [2]); 11700 nM with HLA-A*31:01 (setting [2]); no less than 70000 nM with HLA-A*33:01 (setting [2]); 8860 nM with HLA-A*68:01 (setting [2]).
As to IFMRDWNSKY, the Kd with HLA-A*03:01 (setting [1]) is no less than 33300 nM; in the assay with HLA-A*11:01 (setting [1]) it was no less than 20500 nM; with HLA-A*31:01 (setting [1]) it was 2480 nM; with HLA-A*33:01 (setting [1]) it was 13700 nM; in the assay with HLA-A*68:01 (setting [1]), 10900 nM.
The corresponding values for KTYIDVNEEY are 1800 nM, 777 nM, 1880 nM, no less than 70000 nM and 10500 nM.
On to YSMCTGKFK, for which the Kd with HLA-A*11:01 (setting [6]) is 550 nM.
Take GLYGNGVVTK: in the assay with HLA-A*03:01 (setting [7]), the Kd came out at 3.65 nM.
With LAILFEEVMR, the Kd with HLA-A*68:01 (setting [7]) came out at 29.7 nM.
For RTAIHSLYGR, the Kd with HLA-A*11:01 (source organism: Mammarenavirus guanaritoense) came to 142 nM.
IFLRKLTSR: the Kd with HLA-A*31:01 (setting [8]) is 39 nM; with HLA-A*33:01 (setting [8]) it was 108 nM.
On to CVYNMMGKR, for which the Kd came out at 63.4 nM with HLA-A*03:01 (setting [8]), 137 nM in the assay with HLA-A*31:01 (setting [8]) and 117 nM in the assay with HLA-A*68:01 (setting [8]).
LLMHLVSLY: the Kd was 2.67 nM with HLA-A*03:01 (setting [1]), 7.11 nM in the assay with HLA-A*11:01 (setting [1]), no less than 52500 nM with HLA-A*33:01 (setting [1]) and 9.95 nM with HLA-A*68:01 (setting [1]).
In the case of CTLPPLRYR, the Kd in the assay with HLA-A*31:01 (setting [6]) turned out to be 2.9 nM; with HLA-A*33:01 (setting [6]), 12.1 nM.
On to LLNRFTMTHR, for which the Kd in the assay with HLA-A*31:01 (setting [7]) came out at 15.2 nM.
As to KAIKILTGFR, in the assay with HLA-A*31:01 (setting [8]), the Kd worked out at 7.75 nM.
For FFLRKLTSR, the Kd in the assay with HLA-A*31:01 (setting [7]) was determined as 47.7 nM; with HLA-A*33:01 (setting [7]) it was 46.6 nM.
As for CTLPPLRFR, the Kd with HLA-A*31:01 (setting [4]) is no less than 77900 nM; in the assay with HLA-A*33:01 (setting [4]), 4.13 nM.
On to ETCVYNMMGK, for which the Kd with HLA-A*11:01 (setting [6]) worked out at 1170 nM; in the assay with HLA-A*68:01 (setting [6]) it was 19.1 nM.
As to MISRMLINR, the Kd with HLA-A*11:01 (setting [6]) was 258 nM; in the assay with HLA-A*31:01 (setting [6]) it was 4.37 nM; with HLA-A*33:01 (setting [6]), 9.7 nM; with HLA-A*68:01 (setting [6]) it was 22.7 nM.
For NWLARVGRER, the Kd with HLA-A*33:01 (setting [6]) was determined as 242 nM.
As to FFLSGRGLGK, the Kd with HLA-A*03:01 (source organism: Dengue virus 1 Nauru/West Pac/1974) is 12 nM.
In the case of RKTFVELMRR, the Kd with HLA-A*31:01 (setting [4]) amounted to 51.2 nM.
For the sequence ENMEVEIWTR, in the assay with HLA-A*33:01 (setting [8]), the Kd came out at 106 nM.
For MWQLMYFHR, the results for the Kd with HLA-A*31:01 (setting [4]) and with HLA-A*33:01 (setting [4]) were no less than 24400 nM and 1.43 nM, respectively.
Consider MSYTMCSGK, for which the values for the Kd with HLA-A*03:01 (setting [8]) and with HLA-A*68:01 (setting [8]) were 3.04 nM and 5.87 nM, respectively.
Consider KLKPRWLDAR, for which, in the assay with HLA-A*31:01 (setting [6]), the Kd came to 1.39 nM.
In the case of ALFLEEMLR, in the assay with HLA-A*03:01 (setting [6]), the Kd was 304 nM.
As to GVCGIRSTTR, the Kd in the assay with HLA-A*31:01 (setting [7]) worked out at 27.2 nM.
Turning to STMPLVMAWR, the Kd with HLA-A*11:01 (setting [8]) turned out to be 14.8 nM; with HLA-A*31:01 (setting [8]), 1.16 nM; with HLA-A*33:01 (setting [8]), 2.89 nM; with HLA-A*68:01 (setting [8]) it was 15.2 nM.
TVEAGRTLR: in the assay with HLA-A*68:01 (source organism: Dengue virus 2 Peru/IQT2913/1996), the Kd turned out to be 13 nM.
Regarding SIFKLTYQNK, the results for the Kd with HLA-A*03:01 (setting [4]) and in the assay with HLA-A*11:01 (setting [4]) were 15.2 nM and 65.9 nM, respectively.
Regarding NMLNIMNRRK, the Kd with HLA-A*03:01 (source organism: Dengue virus 1 Singapore/S275/1990) is 181 nM.
